Laboratory results as given in patent US20240254209A1 (published 2024).

Experiments:
[1] = target: T1, Ara h 2 peptide DSYERDPYSPSQDPY; assay: Luminex peptide array
T1 construct: peptide of the Luminex peptide array
T1 peptide: DSYERDPYSPSQDPY
Text: (§1) Peptide microarray. The inventor used peptide arrays to help determine the approximate locations of the antigenic sites targeted by his human IgE mAbs. In collaboration with Dr. Hugh Sampson at Mount Sinai he tested Ara h 2-specific IgE mAbs using a Luminex peptide array technology (Shreffler et al., 2004). […] Several of the Ara h 2 site CR-A-specific IgE mAbs, however, bound strongly to peptide […] at the C-terminus of the allergen protein. Ara h 2 site SP-B-specific antibody 38B7, which competes with all Ara h 2 site CR-B antibodies, bound to two peptides […] and […]. […] In that paper the authors used the fusion protein to define an immunodominant population of IgE antibodies in the sera of peanut allergic subjects, which is the population the inventor defines here as site CR-B, the immunodominant antigenic site of Ara h 2. This region has also been described previously as being an immunodominant target of the Ara h 2 and Ara h 6 IgE antibody response seen in human sera (Chen et al., 2016). These peptides make up the disordered loop between helices 2 and 3 of Ara h 2, the region that differs between Ara h 2.01 and Ara h 2.02 isoforms, not present in the crystal structure due to its high degree of flexibility. […]

[2] = target: T2, Ara h 2 peptide PYSPSQDPYSPSPYD; assay: Luminex peptide array
T2 construct: peptide of the Luminex peptide array
T2 peptide: PYSPSQDPYSPSPYD
Text: as §1

peanut allergen Ara h 8 = target: T3, peanut allergen Ara h 8 (peanut (Arachis hypogaea)); assay: ImmunoCAP, hybridoma supernatant
T3 construct: ImmunoCAP component F352; also called F352
Procedure: (§2) Verification and validation of IgE mAbs peanut allergen specificity. Following the unbiased generation of IgE secreting human hybridomas from peanut allergic subject PBMCs, peanut protein binding and peanut allergen protein specificity was determined. Hybridoma culture supernatant was initially used for this validation. […] Using the available ImmunoCAP components (purified allergen proteins: Ara h 1, F422; Ara h 2, F423; Ara h 3, F424; Ara h 8 F352; Ara h 9 F427), the exact allergen specificity was determined for those which bound Ara h 1, 2, and 3.
(§3) Hybridoma cell culture supernatant was used for initial identification of allergen specificity using ImmunoCAP analysis. Peanut reactivity was first determined using peanut ImmunoCAP. Component analysis identified IgE antibodies specific for Ara h 1, 2, and 3. All antibodies not identified in this table were determined to bind Ara h 6.

peanut allergen Ara h 3 = target: T4, peanut allergen Ara h 3 (peanut (Arachis hypogaea)); assay: ImmunoCAP, hybridoma supernatant
T4 construct: also called F424
Procedure: as §2, §3

peanut allergen Ara h 9 = target: T5, peanut allergen Ara h 9 (peanut (Arachis hypogaea)); assay: ImmunoCAP, hybridoma supernatant
T5 construct: ImmunoCAP component F427; also called F427
Procedure: as §2, §3

binding result [1]: binds
binding result [2]: binds
ImmunoCAP kUA/L (peanut allergen Ara h 8): 0.15 kUA/L
ImmunoCAP kUA/L (peanut allergen Ara h 3): 0.23 kUA/L
ImmunoCAP kUA/L (peanut allergen Ara h 9): 0.11 kUA/L
B1: human IgE mAb 38B7 (antibody, V domains shown)
VH: QVQLVESGGGVVQPGRSLRLSCVGSGFTFRRDAKYWVRQAPGKGLEWVAAISHDGGEEDYAESVKGRFTISRDNSRETVYLEMNSLRPEDTAVYYCATTRSGWYFDYWGQGALVTVSS
VL: EIVLTQSPATLSLSPGARATLSCRASQSVDTYLAWYQQRRGQSPRLLIYDASKRATGIPARFSGSGSGTDFTLTISSLEPEDFAVYYCQQRNNWRTWTFGQGTKVEIN
notes: human IgE from hybridoma
